# ± gives the standard error.
# B1: library; numbered along this chain (parent)
# chain: MATDAALRRLLRLHRTEIAVAVDSAFPLLHALADHDVVPEDKFQETLHLKEKEGCPQAFHALLSWLLTQDSTAILDFWRVLFKDYNLERYGRLQPILDSFPKDVDLSQPRKGRKPPAVPKALVPPPRLPTKRKASEEARAAAPAALTPRGTASPGSQLKAKPPKKPESSAEQQRLPLGNGIQTMSASVQRAVAMSSGDVPGARGAVEGILIQQVFESGGSKKCIQVGGEFYTPSKFEDSGSGKNKARSSSGPKPLVRAKGAQGAAPGGGEARLGQQGSVPAPLALPSDPQLHQKNEDECAVCRDGGELICCDGCPRAFHLACLSPPLREIPSGTWRCSSCLQATVQEVQPRAEEPRPQEPPVETPLPPGLRSAGEEVRGPPGEPLAGMDTTLVYKHLPAPPSAAPLPGLDSSALHPLLCVGPEGQQNLAPGARCGVCGDGTDVLRCTHCAAAFHWRCHFPAGTSRPGTGLRCRSCSGDVTPAPVEGVLAPSPARLAPGPAKDDTASHEPALHRDDLESLLSEHTFDGILQWAIQSMARPAAPFPS
# Variants of: B1
# Test: AIRE transcriptional activation functional score (insulin promoter-GFP; nonsense median 0, synonymous median 1) (normalised score); higher = higher AIRE activity (more reporter activation)
# Conditions: with insulin promoter-GFP reporter in HEK293
# Description: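 Deep mutational scan of full-length human AIRE (codon-optimized cDNA, DT-POPCode NNN libraries over three regions) integrated at a Bxb1 landing pad in HEK293 cells carrying an insulin core promoter-GFP reporter at a Flp-In site. Cells were sorted for the top 10% GFP about 14 days after transfection. Variant frequency log-ratios (select vs non-select, TileSeq) were rescaled so that the nonsense median is 0 and the synonymous median is 1, then averaged over biological replicates.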
row,Variant,AIRE transcriptional activation functional score
1,D98S,0.163 ± 1.1
2,D98Q,2.07 ± 0.15
3,P27V,-0.229 ± 0.27
4,A505I,1.09 ± 0.19
5,G228R,1.26 ± 0.3
6,G228F,0.331 ± 0.12
7,G228D,1.05 ± 0.17
8,R471H,1.03 ± 0.1
9,Q69H,-0.135 ± 0.25
10,D36V,-0.422 ± 0.26
11,R473S,0.755 ± 0.1
12,E53T,1.37 ± 0.61
13,S476T,1.2 ± 0.2
14,N295P,1.05 ± 0.3
15,S185W,0.557 ± 0.095
16,L470V,0.842 ± 0.23
17,G277L,0.959 ± 0.17
18,G277H,0.919 ± 0.44
19,G277M,1.01 ± 0.086
20,G54M,0.663 ± 0.19
21,Q57Y,0.535 ± 0.2
22,P326G,0.87 ± 0.28
23,K52S,0.883 ± 0.3
24,A461P,1.19 ± 0.2

row,Variant,AIRE transcriptional activation functional score
1,A246R,0.482 ± 0.19
2,A246F,1.39 ± 0.099
3,S71R,0.321 ± 0.53
4,C322M,1.1 ± 0.068
5,H512P,1.09 ± 0.24
6,I209D,0.64 ± 0.12
7,H319F,0.514 ± 0.2
8,G435V,0.849 ± 0.31
9,G435Q,0.663 ± 0.11
10,G435I,0.437 ± 0.3
11,K120V,1.01 ± 0.28
12,K120P,1.21 ± 0.39
13,P360M,1.19 ± 0.092
14,R174D,0.334 ± 0.27
15,R174L,0.495 ± 0.31
16,R174C,0.35 ± 0.28
17,S156G,0.917 ± 0.37
18,A300N,0.883 ± 0.33
19,R378D,0.631 ± 0.13
20,G260I,1.39 ± 0.13
21,E376Y,0.702 ± 0.3
22,E376T,0.984 ± 0.57
23,C311Q,0.783 ± 0.088
24,I224Y,0.84 ± 0.094

row,Variant,AIRE transcriptional activation functional score
1,D84N,0.535 ± 0.19
2,V279E,1.08 ± 0.12
3,T447N,1.26 ± 0.23
4,S234M,1.15 ± 0.059
5,G527A,0.391 ± 0.21
6,L488W,1.32 ± 0.047
7,L385S,0.77 ± 0.32
8,L385N,0.689 ± 0.048
9,L385Y,1.34 ± 0.17
10,F215C,0.382 ± 0.089
11,P407G,1.07 ± 0.45
12,Q213P,0.531 ± 0.13
13,L32N,-0.605 ± 0.18
14,L32V,-0.331 ± 0.24
15,L87E,1.49 ± 0.05
16,W78D,0.137 ± 0.41
17,F236C,0.925 ± 0.18
18,F236L,0.651 ± 0.31
19,F236I,1.01 ± 0.17
20,G486P,1 ± 0.4
21,Q349L,1.1 ± 0.26
22,R8A,-0.421 ± 0.42
23,R8P,-0.196 ± 0.54
24,S535N,0.164 ± 0.079

row,Variant,AIRE transcriptional activation functional score
1,M388P,1.14 ± 0.17
2,P154R,0.579 ± 0.53
3,P154S,0.685 ± 0.35
4,P368F,1.63 ± 0.14
5,P368H,1.18 ± 0.18
6,A281Y,1.32 ± 0.046
7,R190H,0.858 ± 0.36
8,R190P,0.955 ± 0.14
9,R190A,0.878 ± 0.41
10,G379I,1.26 ± 0.061
11,V123S,0.751 ± 0.44
12,P315A,0.558 ± 0.45
13,L406H,1.19 ± 0.13
14,D439C,1.16 ± 0.086
15,A186S,0.95 ± 0.17
16,K221P,0.766 ± 0.058
17,A532I,0.447 ± 0.059
18,T334M,1.08 ± 0.054
19,T334G,1.23 ± 0.26
20,Q530S,0.546 ± 0.23
21,H30N,0.384 ± 0.43
22,P405C,1.59 ± 0.17
23,R92Q,0.461 ± 0.085
24,D410Q,1.2 ± 0.28

row,Variant,AIRE transcriptional activation functional score
1,C457G,0.0376 ± 0.09
2,L417Y,1.21 ± 0.098
3,L10T,0.145 ± 0.36
4,L10E,-0.413 ± 0.3
5,H396I,1.17 ± 0.26
6,P325S,1.21 ± 0.33
7,C223G,0.803 ± 0.22
8,C223W,-0.0978 ± 0.045
9,C223A,0.737 ± 0.23
10,H14A,-0.0434 ± 0.09
11,E508Q,1.03 ± 0.18
12,R149Y,0.303 ± 0.2
13,R149H,1.12 ± 0.097
14,G431P,0.983 ± 0.25
15,A271V,1.09 ± 0.14
16,E88F,0.0961 ± 0.24
17,S521G,0.548 ± 0.12
18,E383H,0.859 ± 0.16
19,E383D,0.97 ± 0.076
20,R203K,0.243 ± 0.17
21,V206T,0.68 ± 0.2
22,R316A,0.77 ± 0.27
23,K42H,0.0173 ± 0.08
24,A496W,1.64 ± 0.071

row,Variant,AIRE transcriptional activation functional score
1,L29I,0.187 ± 0.2
2,N427G,1 ± 0.29
3,K235M,1.33 ± 0.087
4,C437M,-0.171 ± 0.072
5,C437Q,0.296 ± 0.039
6,C437R,0.0167 ± 0.12
7,C437L,0.255 ± 0.17
8,C437I,0.106 ± 0.14
9,G462K,-0.837 ± 0.47
10,D297M,0.682 ± 0.052
11,K83L,0.753 ± 0.27
12,A6Q,1.03 ± 0.075
13,L106N,0.233 ± 0.22
14,L106P,-1.47 ± 0.87
15,M194L,0.99 ± 0.16
16,P367K,1.04 ± 0.03
17,P401R,1.15 ± 0.12
18,P401N,1.09 ± 0.047
19,K111D,-0.0433 ± 0.099
20,P56Q,0.746 ± 0.56
21,P56I,0.82 ± 0.12
22,P460N,1.07 ± 0.14
23,E329H,1.45 ± 0.053
24,Q189I,0.169 ± 0.21

row,Variant,AIRE transcriptional activation functional score
1,P416F,0.451 ± 0.058
2,P416M,1.55 ± 0.057
3,E298F,0.727 ± 0.18
4,E298I,1.03 ± 0.45
5,A540E,0.617 ± 0.17
6,A540D,0.625 ± 0.45
7,S168I,0.348 ± 0.5
8,S168Q,0.489 ± 0.33
9,S474N,0.296 ± 0.24
10,S474R,0.817 ± 0.32
11,S372K,1.48 ± 0.092
12,H60Q,0.338 ± 0.4
13,G197K,0.734 ± 0.044
14,G424D,1 ± 0.11
15,G424T,1.59 ± 0.12
16,A450I,1.2 ± 0.2
17,Q293E,1.33 ± 0.14
18,Q293H,1.18 ± 0.27
19,Q293R,0.982 ± 0.32
20,A343E,0.95 ± 0.23
21,A343S,0.938 ± 0.23
22,A343D,1.18 ± 0.15
23,V188P,0.629 ± 0.33

# — the supplement of paper PMC12667976
